Assay: yeast display, Sf9 membrane polyspecificity reagent, FACS + sequencing; frameworks hold sequencing errors
How it was run: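 Polyreactivity labels are assigned by the sorting gate from which each nanobody was recovered. The gates were low and high (top ~1%), set on anti-HA fluorescence for expression and streptavidin fluorescence for reagent binding. Before sorting, galactose-induced (36–48 hours) yeast display cells were stained for 1 hour at 4 °C with 10% biotinylated, detergent-solubilized Sf9 membrane reagent.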

| Sequence | polyreactivity (PSR sort gate) |
| --- | --- |
| QVQLEESGGGLVQAGGSLRLSCAASGITLGYYAMGWYRPAPGKERELVAAITWSGTSTYYADSVKGRFTISRDNAKNTVYLQMNSLKPEDTADYYCAAGFISQYQERGYWGQGTQVTVSS | low polyreactivity |
| QVQLVETGGGLVQAGGSLRLSCAASGSTFVSNAMGWYSQAPGKERELVAAISYIGGGTYYADSEKGRFTISRDNAKNTVYLQMNSLKPEDTAVYYCAAGTPYDLDDYCGQGTQVTVSS | low polyreactivity |
| QVQLVESGGGLVQAGGSLRLSCAASGSTFYRYAMGWYRQAPGKERELVAAISGSGGRTYYADSVKGRFTISRDNAKNTVYLQMNSLKPEDTAVYYCATRFGQRSDYWGQGTQVTVSS | high polyreactivity |
| QVQLVESGGGLVQAGGSLRLSCAASGSIFDVYTMGWYRQAPGKERELVAAISWSGGSTFYADSVKGRFTISRDNAKNTVYLQMNSLKPEDTAVYYCAARSYWRQYGRYGSWGQGTQVTVSS | high polyreactivity |
| QVQLVESGGGLVQAGGSLRLSCAASGSTFFLYAMGWYRQAPGKEREFVAAISIGGSTNYADSVKGRFTISRDNAKNTVYLQMNSLKPEDTAVYYCAKLDLQYIQYLGYDYWGQGTQVTVSS | low polyreactivity |
| QVQLVESGGGLVQAGGSLRLSCAASGYTFYLYAMGWYRQAPGKERELVAAISTNGGRTYYADSVKGRFTISRDNAKNTVYLQLNSLKPEDTAVYYCAVRSRGTAPQYYYWGQGTQVTVSS | high polyreactivity |
| QVQLVESGGGLVQAGGSLRLSCAASGSILDPYAMGWYRQAPGKERELVADISSGASTNYADSVKGRFTISRDNAKNTVYLQMNSLKPEDTAVYYCAAVYVEYSEYRYIVELYYWGQGTQVTVSS | low polyreactivity |
| QVQLVESGGGLLQAGGSLRLSCAASGFTVYRYAMGWYRPEPGKERELGAAITWSGGSTYYADSVKGRFTISRDNAKKSVYFQMNSLKPEDTAVYYCAKETAPSRLPYGYWGQGTQVNVSS | low polyreactivity |
| QVQLVESGGGLVQAGGSLRLSCAASGSTFSDNAMGWYRQAPGKERELVAAISVTGGRTYYADSVKGRFTISRDNAKNTVYLQMNSLKPEDTAVYYCAKVTILDPYSYDYWGQGTQVTVSS | low polyreactivity |
| QVQLVESGGGLVQAGGSLRLTCAASGSTFYRNAMGWYRQAPVKERELVATISSSDGSTYYADSVKGRFTISRDNAKNTVYLQMNSLKPEDTAVYYCATEIYYTKTYDSWGQGTQVTVSS | low polyreactivity |
| QVQLVESVGGLVQAGGRLRLSCAASGSIFSIYGMGWYRQAPGKERELVAVISKSGTRTFYADSVKGRFTISRDNAKNTVYLQMNSLKPEDTAVYYCNARIFFRRNVTQVRMDYWGQGTQVTVSS | high polyreactivity |
| QVQLVESGGGLVQAGGSLRLTCAASGRTLVPYVMGWYRQAPGKERELVASITSGGSTYYADSVKGRFTISRDNAKNTVYLQMNSLKPEDTAVYYCATRQSAERWGYYYWGQGTQVTVSS | low polyreactivity |
| QVQLVESGGGLVQAGGSLRLSCAAYAMGWYRQAPGKERELVAAISSSGGSTYYADSVKGRFTISRDNAKNTVYLQMNSLKPEDTAVYYCARDPDTYFFPPTGYYTSGFDSWGQGTQVTVSS | low polyreactivity |
| QVQLVESGGGLVQAGGSLRLSCAASGIIIGGNAMGWYRQARGKERELVAAINSDDSTYYADSVKGRFTISRDNAKNTVYLQMNSLKPEDTAVYYCAVTETYYSPYSGYWYEYDHWGQGTQVTVSS | high polyreactivity |
| QVQLVESGGGLVQAGGSLRLSCASSGRILYGSAMGWYRQAPGKERALVAAISWRSGSTYYADSVKGRFTISRDNAKNTVYLQMNSLKPEDTEVYYCAAGYGGYPGGYYWGQGTQVTVSS | high polyreactivity |
| QVQLVESGGGLVQAGGSLRLSCAASRFIFRRNAMGWYRQAPGKERELVAAITLSGGSTYYADSVKGRFTISRDNAKNTVYLQMKSLKPEDTAFYFCAARPGYYTRYDYWGQGTQVTVSS | low polyreactivity |

| Sequence | polyreactivity (PSR sort gate) |
| --- | --- |
| QVQLVESWGGLVQAGGSLRLSCAASGRIFHRYAMGWYRQAPGKEREFVAAITYSTGTTYYADSVKGRFTISRDNAKITVYLQMNSLKPEDPAVYYCAKDRRFWHKTWFAYGYDYWGQGTQVTVSS | low polyreactivity |
| QVQLVESGGGLVQAGGSLRLSCAASGRIFGHYAMGWYRHAPGKERELVAAINWRGGSTYYADSVKGRFTISRDNAKNTVYVQMKSLKPEETGVYYCAADWTKARDSIYDYWGQGSQVTVSS | low polyreactivity |
| QVQLVESGGGLVQAGGSLRLSCASSGSTFHDYAMGWYRQAPGKERELVAAISNSGGSTYYADSVKGRFTISRDNAKNTVYLQMNSLKPEDTAVYYCAADGRWYWDYEYWGQGTQVTVSS | low polyreactivity |
| QVQLVESGGGLVQAGGSLRLSCAASGLIFANNTMGWYRQAPGKERELVAAISATGDGNTYYADSVKGRFTISRDNAKNTVYLQMNSLKPEDTAVYYCNRLPQYALPYRHNGYWGQGTQVTVSS | low polyreactivity |
| QVQLVESGGGLVQAGGSLRLSCAASGSIFGNNVMGWYRQAPGKERELVAAITSGTSTYYADSVKGRFTISRDNAKNTVYLQMNSLKPEDTAVYYCAALWSSRYVVHPQWYDYWGQGTQVTVSS | low polyreactivity |
| QVQLVESGGGLVQAGGSLRLSCAASGFTLVYYVMGWYRQAPGKERELVARISRGGSTNYADSVKGRFTISRDNAKNTVYLQMNSLKPEDTAVYYCAARRTSWQGFNYWGQGTQVTVAS | high polyreactivity |
| QVQLVESGGGLVQAGGSLRLSCAATGSTFYRNAMGWYRQAPGKEREFVAAISFRGGGTYADSVKGRFTISRDNAKNTVFLQMNSLKPEDTAVYYCADDHLSYRRRYEYWGQGTQVTVSS | low polyreactivity |
| QVQLVESGGGLVQAGGSLRLSCAASRSTFTGNAMGWYRQAPGNERELVASINGSSGSTYYADSVKGRFTISRDNAKNTVYLQMNSLKPEDTAVYYCAKDSFLHFPRVGWVGLEYWGQGTQVTVSS | low polyreactivity |
| QVQLVESGGGLVQAGGSLRLSCAASGSTFGYNTMGWYRQAPGKERELVAAITSGGRTYYADSVKGRFTISRDNAKNTVYLQMNILKPEDTAVYYCAAYYWWGYPENDYWGQGTQVTVSS | high polyreactivity |
| QVQLVESGGGLVQAGGSLRLSCAASGFTFYTYAMGWYRHAPGKERELVAAITSSGGSTYYADSVKGRFTISRDNAKNSVYLQMNSLKPEDTAVYYCKAVSYYLGDDYWGQGTQVNVSS | high polyreactivity |
| QVQLVESGGGLVHAGGSHRLSCAATGRIFDANARGGYRQAPGKERELVAVISSRGGSTYYADSVKGRFTISRDNAKNTVYLQMNSLKPEDTAVYYCAKGFSVAGYDYWGQGTQVTVSS | low polyreactivity |
| QVQLVESGGGLVQAGCSLRISCAASGRIIKSYASGWYRQAPGKERELVAAITWSSGSTYYADSVKGRFTISRDNAKNTVYFQMKRLKPEDTEVYYCAADPIRYRSRHKYGFWGHGTQVTVSS | low polyreactivity |
| QVQLVESGGGLVQAGGSLRLSCAASGRTFIYNVMGWYRQAPGKERELVASIRSSGGSTYYADSVKGRFTISRDNAKNSVYLQMNSLKPEDTAVYYCAADRSPGIRCWPGDYWGQGTQVTVSS | low polyreactivity |
| QVQLVESGGGLVQAGGSLRLSCAASGSIFNVNSMGWYRQAPGKERELVAAISSGGDTYYADSVKGRFTISRDNAKNTVYLQMNSLKPEDTAVYYCAKQSYTLYTLLYDYWGLGTQVTVSS | low polyreactivity |
| QVQLVESGGGLVQAGGSLRLSCAASGSIMNNYAMGWYRQAPGKERELVAAISSSGGTNYADSVKGRFTISRDNAKNTVYLLMNSLKPEDTAVYYCNADVMDGGYDYWGQGTQVTVSS | low polyreactivity |
| QVQLVESGGGLVQAGGSLRLSCAASGSTFGRYAMGWYRQAPGKERELVAAITRSGGRTYYADSLKGRFTISRDNAKNTVYLQMNSLKPEDTAVYYCAAVGNLYYTSHWQYDYWGQGTQVTVSS | high polyreactivity |

— the nanobody polyreactivity screen of Harvey et al. (2022)
